Biological target: T1, CD20 (human, UniProt P11836 1-297)
T1 construct: whole, on cells; also called CD20 on live cells; CD20 on Daudi and Raji cells
T1 sequence (looked up): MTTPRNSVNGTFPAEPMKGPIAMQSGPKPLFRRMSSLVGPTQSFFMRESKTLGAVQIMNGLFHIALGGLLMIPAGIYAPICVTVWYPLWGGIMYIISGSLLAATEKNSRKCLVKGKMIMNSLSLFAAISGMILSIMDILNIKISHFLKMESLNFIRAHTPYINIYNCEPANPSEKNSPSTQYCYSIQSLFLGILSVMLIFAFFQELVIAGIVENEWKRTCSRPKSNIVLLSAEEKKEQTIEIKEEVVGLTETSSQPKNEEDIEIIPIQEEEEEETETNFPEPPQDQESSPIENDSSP
Assay: Scatchard analysis, radio-iodinated sample on Raji cells; apparent association constant

B1: veltuzumab (hA20) (antibody, V domains shown)
VH: QVQLQQSGAEVKKPGSSVKVSCKASGYTFTSYNMHWVKQAPGQGLEWIGAIYPGMGDTSYNQKFKGKATLTADESTNTAYMELSSLRSEDTAFYYCARSTYYGGDWYFDVWGQGTTVTVSS
VL: DIQLTQSPSSLSASVGDRVTMTCRASSSVSYIHWFQQKPGKAPKPWIYATSNLASGVPVRFSGSGSGTDYTFTISSLQPEDIATYYCQQWTSNPPTFGGGTKLEIK
Ka: 1e+08 M⁻¹

Reference: US20130280250A1 (published 2013)
